Source: patent publication US20260042834A1, “ANTI-CORTICOTROPIN-RELEASING HORMONE ANTIBODIES AND POLYCYSTIC OVARY SYNDROME” (HBM ALPHA THERAPEUTICS, INC., priority 2022, published 2026)
Like-named read-outs stand apart in the source and are kept apart here.

Molecular target: T1, N-terminal region plus central region, central region only, central region plus C-terminal region of CRH (Homo sapiens, UniProt P06850)
T1 construct: N-terminal region plus the central region (CT biotin), the central region only (NT biotin or CT biotin)
Assay: ELISA determining the binding region of CRH
Conditions: dash = no binding
Method: Streptavidin (Thermo, Cat: 21125) was diluted in PBS to a concentration of 2 μg/ml. 100 μl of diluted streptavidin was added per well to ELISA microplates, and the plates were incubated overnight at 4° C. Plates were blocked with ELISA blocking solution (containing 2% w/v BSA, 0.05% (v/v) Tween-20, pH 7.4 PBS buffer) at 37° C. for 1 hour, and then incubated with 1 μg/mL N-terminal region plus the central region (CT biotin), the central region only (NT biotin or CT biotin), or the central region plus C-terminal region (NT biotin) of CRH for 1 hour at 37° C. Plates were then washed and incubated with diluted anti-CRH antibody (Ab) at 15 μg/ml (100 nM, 10 diluted, 8 points) for 1 hour at 37° C. Subsequently, plates were washed and incubated with HRP-conjugated goat anti-human IgG (H+L) antibody (Jackson, Cat: 109-035-088) at 37° C. for 1 hour. 100 μL of 3,3′,5,5′-tetramethylbenzidine (TMB) substrate (Biopanda, Cat: TMB-S-003) was added, and the plates were incubated at room temperature for 15 minutes. 100 μL of ELISA stopping solution (Solarbio, Cat #: C1058) was added to terminate the reaction, and the optical density at 450 nm (OD450 nm) was determined by an ELISA plate reader (Molecular Devices, Spectra max 384 plus).

Measured: EC50

B1: PR302334-26: humanized variant of Series 9 mAb PR302334; VH SEQ ID NO: 277, VL SEQ ID NO: 328 (antibody, V domains shown)
VH: EVQLVESGGGLVQPGGSLRLSCAASGFTFSTYAMSWVRQAPGKGLEWVASIRSGGTTYYPDSVKGRFTISRDNSKNSLYLQMNSLRAEDTAVYYCTRGIDWGQGTTVTVSS
VL: DIVMTQSPDSLAVSLGERATINCKASQSVNNDVAWYQQKPGQPPRLLIYYASNRYTGVPDRFSGSGSGTDFTLTISSLQAEDLAVYFCQQDYSSWTFGGGTKVEIK
modifications: PR302334-18 VH, PR302334-26 VH, PR302334-27 VH; PR302334-10 VL, PR302334-24 VL, PR302334-26 VL, PR302334-4 VL
> 100 nM: central plus C-terminal region CRH peptide, NT-biotin (SEQ ID NO: 483), read-out: ELISA EC50 C-Ter-CRH (NT-Bion) | central region CRH peptide, CT-biotin (SEQ ID NO: 485), read-out: ELISA EC50 Central-CRH (CT-Bion) | central region CRH peptide, NT-biotin (SEQ ID NO: 484), read-out: ELISA EC50 Central-CRH (NT-Bion)
